Measured values published in PMC4780012, “SmMYC2a and SmMYC2b played similar but irreplaceable roles in regulating the biosynthesis of tanshinones and phenolic acids in Salvia miltiorrhiza”.

Key:
SmMYC2a-His = SmMYC2a-His (Salvia miltiorrhiza, UniProt A0A088SC56 1-602); assay: EMSA; EMSA: 2 ug purified protein with 2 ug 3'-biotin probe, room temperature, 10 min; buffer, salt and pH not stated; conditions: protein: recombinant; tags: His (text: C-terminal, cleavable; pET32a vector, BamHI/HindIII); chain copies: 2; label: 3' biotin; blunt
Chain of SmMYC2a-His (A0A088SC56 entry or part of it): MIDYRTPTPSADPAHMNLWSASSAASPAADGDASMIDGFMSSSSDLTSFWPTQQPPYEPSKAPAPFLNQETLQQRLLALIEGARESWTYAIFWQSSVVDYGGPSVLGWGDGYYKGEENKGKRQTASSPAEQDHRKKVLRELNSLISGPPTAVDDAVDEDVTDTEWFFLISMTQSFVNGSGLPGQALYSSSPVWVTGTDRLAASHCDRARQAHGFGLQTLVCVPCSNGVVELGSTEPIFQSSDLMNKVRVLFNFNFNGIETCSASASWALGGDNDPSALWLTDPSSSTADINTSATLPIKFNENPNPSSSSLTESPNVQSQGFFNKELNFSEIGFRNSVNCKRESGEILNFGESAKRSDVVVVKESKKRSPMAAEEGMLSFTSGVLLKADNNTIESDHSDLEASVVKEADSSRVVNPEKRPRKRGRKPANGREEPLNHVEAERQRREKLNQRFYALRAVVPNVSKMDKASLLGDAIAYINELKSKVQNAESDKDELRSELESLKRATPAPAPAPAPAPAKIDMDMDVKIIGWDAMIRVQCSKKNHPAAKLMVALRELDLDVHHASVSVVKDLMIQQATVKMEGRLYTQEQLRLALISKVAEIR

SmMYC2b-His = SmMYC2b-His (Salvia miltiorrhiza, UniProt UPI0025AD73A7 1-607); assay: as above; conditions: protein: recombinant; tags: His (text: C-terminal, cleavable; pET32a vector, EcoRV/SalI); chain copies: 2; label: 3' biotin; blunt
Chain of SmMYC2b-His (chain, as listed by the source): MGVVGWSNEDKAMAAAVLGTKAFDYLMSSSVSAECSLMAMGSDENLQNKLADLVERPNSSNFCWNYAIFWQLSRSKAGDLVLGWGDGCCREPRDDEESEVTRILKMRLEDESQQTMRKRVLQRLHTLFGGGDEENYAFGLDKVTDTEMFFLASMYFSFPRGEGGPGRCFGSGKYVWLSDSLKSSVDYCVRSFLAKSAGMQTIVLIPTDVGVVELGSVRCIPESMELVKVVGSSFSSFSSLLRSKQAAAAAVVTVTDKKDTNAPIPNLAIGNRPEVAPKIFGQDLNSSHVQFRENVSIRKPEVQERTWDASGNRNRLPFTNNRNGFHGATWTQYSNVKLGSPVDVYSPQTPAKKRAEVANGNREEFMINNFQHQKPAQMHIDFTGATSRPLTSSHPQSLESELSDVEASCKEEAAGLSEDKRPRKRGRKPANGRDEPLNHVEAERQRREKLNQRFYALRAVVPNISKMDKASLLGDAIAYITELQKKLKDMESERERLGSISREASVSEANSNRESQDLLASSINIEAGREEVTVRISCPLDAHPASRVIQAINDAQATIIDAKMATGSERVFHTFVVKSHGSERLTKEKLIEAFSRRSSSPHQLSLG

B1: Wild-type CYP98A14 (dsDNA)
DNA 1: ATTAGTGATTAACACGTGCACATTTATTAA
DNA 2: TTAATAAATGTGCACGTGTTAATCACTAAT
- binding result (SmMYC2a-His): binds
- binding result (SmMYC2b-His): binds

B2: Wild-type HCT6 (dsDNA)
DNA 1: AAGCCTAAAGCTCACATGGCTGCTAAACCT
DNA 2: AGGTTTAGCAGCCATGTGAGCTTTAGGCTT
- binding result (SmMYC2a-His): binds

B3: m-HCT6 (dsDNA)
DNA 1: AAGCCTAAAGCTTTTTTTGCTGCTAAACCT
DNA 2: AGGTTTAGCAGCAAAAAAAGCTTTAGGCTT
- binding result (SmMYC2a-His): no binding
